Measured values from US7645449B2, “Sensitizing cells for apoptosis by selectively blocking cytokines” (priority 2003, dated 2010).

Tests used:
[1] = test system: MDA-MB-231 breast cancer cells; assay: MTS viability of MDA-MB-231 cells: chemotherapy- and anti-CD95-induced apoptosis; type: cell-based, human
Protocol: Human LNCAP prostate cancer cell line and human MDA-MB-231 breast cancer cell line were obtained from the American Type Culture Collection (ATCC, Manassas, Va.). Human RT112 bladder carcinoma cell line was kindly provided by Dr. M. Cippitelli (Regina Elena Cancer Institute, Rome, Italy). Cells were grown in RPMI 1640 (Life Technologies Inc., Grand Island, N.Y.) containing 10% heat inactivated fetal bovine serum supplemented with L-Glutamine 2 mM and 100 units/ml Penicillin-Streptomycin. Cells were kept in 5% CO2 atmosphere and routinely passaged when 80-85% confluent. […]
Cell viability was determined using the CellTiter 96® AQueous One Solution Cell Proliferation Assay (Promega, Madison, Wis.), according to the manufacturer's instructions. The assay is based on reduction of 3-(4,5-dimethylthiazol-2-yl)-5-(3-carboxymethoxyphenyl)-2-(4-sulfophenyl)-2H-tetrazolium, inner salt (MTS) to a colored formazan product that is measured spectrophotometrically. […] After 3 hours of incubation at 37° C. with the MTS reagent, the plates were read on a Multilabel Counter (Victor2, Wallac, Perkin-Ehmer Inc., Norwalk, Conn.) and dye absorbance was measured at 490 nm.
The percentage of apoptotic cells was derived from the percentage of viable cells that was directly calculated from the values of the MTS assay.

[2] = test system: Bcl-xL and Bcl-2 in normal thyrocytes; assay: Immunoblot of Bcl-xL and Bcl-2 in normal thyrocytes cultured with cytokines; type: cell-based, human; settings: after 48 hours of culture; IL-4 20 ng/ml, IL-10 40 ng/ml, IFN-γ 1000 IU/ml
Protocol: Thyroid cell purification and culture. Thyroid tissues from normal, PTC, FTC and UTC were digested for 2 hours with collagenase (1.5 mg/ml) (Gibco BRL, Grand Island, N.Y.) and hyaluronidase (20 μg/ml) (Sigma Chemical Co., St. Louis, Mo.) in DMEM. Thyrocytes were purified from the digested tissues by hematopoietic cell depletion with anti-CD45-coupled beads (Dynal, Wirral Merseyside, U.K.) and 12 hours of flask adherence, which allowed removal of other cells. After additional 12 hours of culture, thyroid cells were allowed to grow in monolayer for the immunocytochemistry or detached with trypsin+EDTA following exposure to cytokines or chemotherapeutic agents for functional and protein analyses. Thyrocytes were cultured in standard DMEM with 10% heat-inactivated FBS (Hyclone Laboratories, Logan, UK) in the presence or absence of human recombinant IL-4 (20 ng/ml), IL-10 (40 ng/ml) or IFN-γ (1000 IU/ml) (uroclone, Paignton, UK) and cisplatin (300 ng/ml), doxorubicin (5 μM) and taxol (5 μM) (Sigma) or TRAIL (Alexis, San Diego, USA). For the IL-4 and IL-10 neutralization, thyroid cancer cells were pretreated, for 48 hours, with anti-human IL-4 and IL-10 neutralizing antibodies (1 μg/ml) (R&D systems, MN, USA).
Protein isolation and Western Blotting. Cell pellets were resuspended in ice-cold NP-40 lysis buffer (50 mM Tris-HCl, pH 7.5, 150 mM NaCl, 1 mM EGTA, 1% NP-40) containing 1 mM PMSF, leupeptin (1 μg/ml), pepstatin (1 μg/ml) and aprotirni (1 μg/ml). Each lysate (30 μg) was fractioned on 12% SDS-polyacrylamide gels and blotted to nitrocellulose (Hybond, Amersham, Little Chalfont Buckinghamshire England, UK). Membrane was blocked for 1 h with nonfat dry milk in TBS containing 0.05% Tween 20 and successively incubated for 2 h with Abs specific to actin (Ab-1, mouse IgM, Calbiochem, Darmstadt, Germany), Bcl-2 (124, mouse IgG1, Upstate Biotechnology Inc.), Bcl-xL (H-5, mouse IgGl, Santa Cniz Biotechnology), IL-4 (3007.11, mouse IgG1, R&D Systems, Inc., Minneapolis, USA), IL-10 (23738.111, mouse IgG2b, R&D Systems), IFN-γ (25718.111, mouse IgG2a, R&D Systems). […]

B1: IL-4: human recombinant IL-4 (protein, UniProt P05112 25-153, looked up)
Interleukin-4: HKCDITLQEIIKTLNSLTEQKTLCTELTVTDIFAASKNTTEKETFCRAATVLRQFYSHHEKDTRCLGATAQQFHRHKQLIRFLKRLDRNLWGLAGLNSCPVKEANQSTLENFLERLKTIMREKYSKCSS
**Q.** Which “anti-CD95-induced apoptosis of MDA-MB-231 cells” value ([1]; cytokine pretreatment, 30 ng/ml anti-CD95 agonistic antibody) does the source give for B1 here?
**A.** The value was “greatly reduced anti-CD95-induced apoptosis”.

**Q.** And the “drug-induced death of MDA-MB-231 cells” value ([1]; two days cytokine pretreatment (20 ng/ml), 300 ng/ml cisplatin or 5 μM daunorubicin)?
**A.** The value was “significantly protected from drug-induced death”.

**Q.** What about the “Bcl-xL and Bcl-2 expression in normal thyrocytes” value [2] of the same molecule?
**A.** Its value is “upregulated”.
